The supplement of paper PMC10065799, “High-throughput profiling of sequence recognition by tyrosine kinases and SH2 domains using bacterial peptide display” (eLife, 2023)

Molecular target: FGFR3 (UniProt P22607)
Assay: phosphorylation enrichment, bacterial display (enrichment ratio); higher = better substrate or ligand; peptides without Tyr show the background
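Note: 11-residue human phosphosite peptides and single-mutation variants displayed on the E. coli surface, counted by deep sequencing, each peptide's frequency after selection divided by its frequency in the unselected input library; frequency after pTyr selection over input frequency; kinase dosed for 20-30% of maximal phosphorylation in three min.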

FGFR3, sequence (P22607 whole entry, looked up): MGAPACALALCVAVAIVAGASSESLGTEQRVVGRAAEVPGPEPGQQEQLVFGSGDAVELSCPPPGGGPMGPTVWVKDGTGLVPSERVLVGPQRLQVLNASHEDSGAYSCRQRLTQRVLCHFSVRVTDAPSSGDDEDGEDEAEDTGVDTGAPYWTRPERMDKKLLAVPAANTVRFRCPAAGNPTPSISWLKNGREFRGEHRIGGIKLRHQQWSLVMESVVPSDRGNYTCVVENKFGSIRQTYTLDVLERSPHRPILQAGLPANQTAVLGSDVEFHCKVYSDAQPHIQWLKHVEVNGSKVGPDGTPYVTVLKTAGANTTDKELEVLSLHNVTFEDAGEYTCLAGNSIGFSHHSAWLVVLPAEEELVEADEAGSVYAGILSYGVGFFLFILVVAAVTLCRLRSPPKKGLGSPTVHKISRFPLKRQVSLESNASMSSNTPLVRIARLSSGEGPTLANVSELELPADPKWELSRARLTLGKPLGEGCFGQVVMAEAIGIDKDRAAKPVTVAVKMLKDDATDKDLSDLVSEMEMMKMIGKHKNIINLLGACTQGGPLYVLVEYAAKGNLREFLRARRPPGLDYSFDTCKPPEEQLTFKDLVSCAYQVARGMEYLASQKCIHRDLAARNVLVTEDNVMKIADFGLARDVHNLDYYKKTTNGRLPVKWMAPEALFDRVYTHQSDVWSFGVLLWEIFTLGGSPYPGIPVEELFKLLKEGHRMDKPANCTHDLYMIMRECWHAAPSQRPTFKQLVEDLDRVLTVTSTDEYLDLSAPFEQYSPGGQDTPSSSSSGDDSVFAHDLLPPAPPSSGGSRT

First: SAEKAYHEQLS [TUBA1A_Y282]
Second: SHISGYATLRR [RAPH1_Y1226]
The phosphorylation enrichment of the first is higher: 0.572 for the first, 0.562 for the second.

Going from KCLAVYQAGAR [APOE_Y180_R176C] to VLTSKHRGGGG [HBA1_Y141_Y141H], the phosphorylation enrichment falls from 0.557 to 0.419.

Going from QTLTDYDTRFY [CSNK2A3_Y131_I133T] to MKDLTYASLCF [ALOX5_Y446], the phosphorylation enrichment rises from 0.69 to 0.946.

Going from SWSTSYSGFRF [NKAPL_Y91_YF] to EKRDAYVSCLN [GSR_Y150_R153C], the phosphorylation enrichment falls from 0.719 to 0.702.

Compared with ARVANYQRDGP [CAT_Y386], GVLKEYGVKVL [CPS1_Y529] is higher in phosphorylation enrichment: 0.526 for the first, 0.569 for the second.

First: EADRKYEEVAG [TPM3_Y163_R168G]
Second: GDAMLYYPSVS [GPR143_Y177_A173D]
The phosphorylation enrichment of the first is lower: 0.685 for the first, 4.78 for the second.

First: RQNRFYDAKVR [FKBP6_Y188]
Second: NRKGKYFNVER [ANAPC4_Y469]
The phosphorylation enrichment of the first is higher: 0.496 for the first, 0.451 for the second.

Going from VFAPDFIAGVS [NOB1_Y366_Y366F] to GIVEDYRPTFF [ACVRL1_Y421_P424T_YF], the phosphorylation enrichment rises from 0.619 to 0.651.

Going from QRIFQYIRSRF [DYRK1B_Y273_Q275R_YF] to ILGRFYETGSI [PAX2_Y73_YF], the phosphorylation enrichment falls from 0.695 to 0.578.

Going from GFIISYREEEQ to IRTIDYRFTVW [IDS_Y497_YF], the phosphorylation enrichment rises from 0.729 to 0.741.

First: KEAQVYQAFKL [SUCLG2_Y343]
Second: KDQGIYEDFVE [MYL6_Y86_T85I_YF]
The phosphorylation enrichment of the first is lower: 0.603 for the first, 0.901 for the second.

Going from FSMGCYEISLE [HMGCL_Y198_G203E_YF] to SRGSSYNSIPK [FLNC_Y2625_S2626N], the phosphorylation enrichment falls from 0.973 to 0.383.

Compared with ATHSRYRLNDY [CLDN14_Y233_G232R], SIKDKYVTVLF [KCNH2_Y611_A614V_YF] is higher in phosphorylation enrichment: 0.468 for the first, 0.646 for the second.

Compared with ENGPFYASFPP [GDAP2_Y488_T489A_YF], ECKLFYSRKEG [PTPN11_Y263_L262F] is lower in phosphorylation enrichment: 2.07 for the first, 0.602 for the second.

First: STSKTYVISQT [RBBP6_Y87_R91Q]
Second: MVSLFYGTAIF [OR10C1_Y251_L255I]
The phosphorylation enrichment of the first is lower: 0.429 for the first, 0.819 for the second.

First: RLLVVYPSTQR [HBB_Y36_W38S]
Second: LGRTVYADCLA [ABCA4_Y2063_L2060R]
The phosphorylation enrichment of the first is lower: 0.94 for the first, 1.37 for the second.

VTRKEYFIFLE [CAMKV_Y95] gave a phosphorylation enrichment of 0.838.

Tested on: Fer (mouse)
Assay: as above

First: SAEKAYHEQLS [TUBA1A_Y282]
Second: SHISGYATLRR [RAPH1_Y1226]
The phosphorylation enrichment of the first is higher: 0.425 for the first, 0.399 for the second.

Going from KCLAVYQAGAR [APOE_Y180_R176C] to VLTSKHRGGGG [HBA1_Y141_Y141H], the phosphorylation enrichment falls from 0.487 to 0.222.

First: QTLTDYDTRFY [CSNK2A3_Y131_I133T]
Second: MKDLTYASLCF [ALOX5_Y446]
The phosphorylation enrichment of the first is lower: 0.749 for the first, 1.71 for the second.

Compared with SWSTSYSGFRF [NKAPL_Y91_YF], EKRDAYVSCLN [GSR_Y150_R153C] is lower in phosphorylation enrichment: 1.61 for the first, 0.437 for the second.

Going from ARVANYQRDGP [CAT_Y386] to GVLKEYGVKVL [CPS1_Y529], the phosphorylation enrichment falls from 0.394 to 0.362.

First: EADRKYEEVAG [TPM3_Y163_R168G]
Second: GDAMLYYPSVS [GPR143_Y177_A173D]
The phosphorylation enrichment of the first is lower: 0.464 for the first, 1.27 for the second.

Going from RQNRFYDAKVR [FKBP6_Y188] to NRKGKYFNVER [ANAPC4_Y469], the phosphorylation enrichment falls from 0.605 to 0.351.

Compared with VFAPDFIAGVS [NOB1_Y366_Y366F], GIVEDYRPTFF [ACVRL1_Y421_P424T_YF] is higher in phosphorylation enrichment: 0.392 for the first, 0.468 for the second.

First: QRIFQYIRSRF [DYRK1B_Y273_Q275R_YF]
Second: ILGRFYETGSI [PAX2_Y73_YF]
The phosphorylation enrichment of the first is higher: 0.827 for the first, 0.4 for the second.

Going from GFIISYREEEQ to IRTIDYRFTVW [IDS_Y497_YF], the phosphorylation enrichment falls from 0.644 to 0.557.

First: KEAQVYQAFKL [SUCLG2_Y343]
Second: KDQGIYEDFVE [MYL6_Y86_T85I_YF]
The phosphorylation enrichment of the first is higher: 9.27 for the first, 1.82 for the second.

Compared with FSMGCYEISLE [HMGCL_Y198_G203E_YF], SRGSSYNSIPK [FLNC_Y2625_S2626N] is lower in phosphorylation enrichment: 1.14 for the first, 0.328 for the second.

Compared with ATHSRYRLNDY [CLDN14_Y233_G232R], SIKDKYVTVLF [KCNH2_Y611_A614V_YF] is higher in phosphorylation enrichment: 0.37 for the first, 0.392 for the second.

First: ENGPFYASFPP [GDAP2_Y488_T489A_YF]
Second: ECKLFYSRKEG [PTPN11_Y263_L262F]
The phosphorylation enrichment of the first is higher: 7.77 for the first, 0.445 for the second.

Compared with STSKTYVISQT [RBBP6_Y87_R91Q], MVSLFYGTAIF [OR10C1_Y251_L255I] is higher in phosphorylation enrichment: 0.328 for the first, 0.937 for the second.

Compared with RLLVVYPSTQR [HBB_Y36_W38S], LGRTVYADCLA [ABCA4_Y2063_L2060R] is higher in phosphorylation enrichment: 0.7 for the first, 1.4 for the second.

With VTRKEYFIFLE [CAMKV_Y95] the phosphorylation enrichment was 0.528.

Molecular target: EPHB2 (UniProt P29323)
Sequence (P29323 whole entry, looked up): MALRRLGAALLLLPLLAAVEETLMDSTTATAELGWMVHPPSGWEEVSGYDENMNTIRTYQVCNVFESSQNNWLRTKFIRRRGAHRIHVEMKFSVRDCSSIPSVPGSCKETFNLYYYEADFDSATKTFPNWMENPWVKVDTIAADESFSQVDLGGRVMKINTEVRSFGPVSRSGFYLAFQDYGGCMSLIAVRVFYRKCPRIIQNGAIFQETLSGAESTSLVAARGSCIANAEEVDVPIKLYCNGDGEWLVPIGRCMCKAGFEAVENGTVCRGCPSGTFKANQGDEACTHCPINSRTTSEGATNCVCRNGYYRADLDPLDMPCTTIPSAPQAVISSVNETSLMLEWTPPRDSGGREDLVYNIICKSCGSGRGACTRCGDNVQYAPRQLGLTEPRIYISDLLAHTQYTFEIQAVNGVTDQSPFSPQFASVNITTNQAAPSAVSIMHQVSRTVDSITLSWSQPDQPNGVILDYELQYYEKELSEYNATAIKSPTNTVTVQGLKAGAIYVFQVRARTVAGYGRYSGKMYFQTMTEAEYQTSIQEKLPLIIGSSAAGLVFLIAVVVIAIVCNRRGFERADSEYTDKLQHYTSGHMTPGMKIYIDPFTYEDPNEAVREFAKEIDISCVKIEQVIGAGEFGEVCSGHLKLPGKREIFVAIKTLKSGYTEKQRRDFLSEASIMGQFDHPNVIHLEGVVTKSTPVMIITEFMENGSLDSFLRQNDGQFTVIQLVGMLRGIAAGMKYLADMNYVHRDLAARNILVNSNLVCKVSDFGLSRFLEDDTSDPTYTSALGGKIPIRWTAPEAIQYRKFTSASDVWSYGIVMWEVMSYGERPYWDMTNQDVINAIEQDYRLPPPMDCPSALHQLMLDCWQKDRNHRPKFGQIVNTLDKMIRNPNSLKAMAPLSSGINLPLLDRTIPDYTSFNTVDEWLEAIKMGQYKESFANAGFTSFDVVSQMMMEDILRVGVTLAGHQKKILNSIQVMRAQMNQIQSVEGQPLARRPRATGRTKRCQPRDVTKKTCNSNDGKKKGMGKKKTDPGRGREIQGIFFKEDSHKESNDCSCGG
Assay: as above

Compared with SAEKAYHEQLS [TUBA1A_Y282], SHISGYATLRR [RAPH1_Y1226] is lower in phosphorylation enrichment: 0.424 for the first, 0.391 for the second.

First: KCLAVYQAGAR [APOE_Y180_R176C]
Second: VLTSKHRGGGG [HBA1_Y141_Y141H]
The phosphorylation enrichment of the first is higher: 0.646 for the first, 0.225 for the second.

Compared with QTLTDYDTRFY [CSNK2A3_Y131_I133T], MKDLTYASLCF [ALOX5_Y446] is higher in phosphorylation enrichment: 0.667 for the first, 2.07 for the second.

First: SWSTSYSGFRF [NKAPL_Y91_YF]
Second: EKRDAYVSCLN [GSR_Y150_R153C]
The phosphorylation enrichment of the first is higher: 0.663 for the first, 0.472 for the second.

Compared with ARVANYQRDGP [CAT_Y386], GVLKEYGVKVL [CPS1_Y529] is lower in phosphorylation enrichment: 0.406 for the first, 0.322 for the second.

Compared with EADRKYEEVAG [TPM3_Y163_R168G], GDAMLYYPSVS [GPR143_Y177_A173D] is higher in phosphorylation enrichment: 0.578 for the first, 0.702 for the second.

Compared with RQNRFYDAKVR [FKBP6_Y188], NRKGKYFNVER [ANAPC4_Y469] is higher in phosphorylation enrichment: 0.432 for the first, 0.448 for the second.

Going from VFAPDFIAGVS [NOB1_Y366_Y366F] to GIVEDYRPTFF [ACVRL1_Y421_P424T_YF], the phosphorylation enrichment rises from 0.479 to 0.549.

Going from QRIFQYIRSRF [DYRK1B_Y273_Q275R_YF] to ILGRFYETGSI [PAX2_Y73_YF], the phosphorylation enrichment falls from 0.795 to 0.515.

Going from GFIISYREEEQ to IRTIDYRFTVW [IDS_Y497_YF], the phosphorylation enrichment rises from 0.5 to 0.614.

Compared with KEAQVYQAFKL [SUCLG2_Y343], KDQGIYEDFVE [MYL6_Y86_T85I_YF] is higher in phosphorylation enrichment: 0.566 for the first, 0.949 for the second.

Compared with FSMGCYEISLE [HMGCL_Y198_G203E_YF], SRGSSYNSIPK [FLNC_Y2625_S2626N] is lower in phosphorylation enrichment: 0.751 for the first, 0.356 for the second.

Going from ATHSRYRLNDY [CLDN14_Y233_G232R] to SIKDKYVTVLF [KCNH2_Y611_A614V_YF], the phosphorylation enrichment rises from 0.371 to 0.48.

Going from ENGPFYASFPP [GDAP2_Y488_T489A_YF] to ECKLFYSRKEG [PTPN11_Y263_L262F], the phosphorylation enrichment falls from 10.4 to 0.451.

Compared with STSKTYVISQT [RBBP6_Y87_R91Q], MVSLFYGTAIF [OR10C1_Y251_L255I] is higher in phosphorylation enrichment: 0.418 for the first, 0.666 for the second.

First: RLLVVYPSTQR [HBB_Y36_W38S]
Second: LGRTVYADCLA [ABCA4_Y2063_L2060R]
The phosphorylation enrichment of the first is lower: 0.931 for the first, 1.61 for the second.

VTRKEYFIFLE [CAMKV_Y95] showed a phosphorylation enrichment of 0.554.

Tested on: c-Abl (mouse)
Assay: as above

Compared with SAEKAYHEQLS [TUBA1A_Y282], SHISGYATLRR [RAPH1_Y1226] is lower in phosphorylation enrichment: 0.511 for the first, 0.43 for the second.

First: KCLAVYQAGAR [APOE_Y180_R176C]
Second: VLTSKHRGGGG [HBA1_Y141_Y141H]
The phosphorylation enrichment of the first is higher: 0.734 for the first, 0.418 for the second.

First: QTLTDYDTRFY [CSNK2A3_Y131_I133T]
Second: MKDLTYASLCF [ALOX5_Y446]
The phosphorylation enrichment of the first is lower: 0.692 for the first, 1.78 for the second.

First: SWSTSYSGFRF [NKAPL_Y91_YF]
Second: EKRDAYVSCLN [GSR_Y150_R153C]
The phosphorylation enrichment of the first is lower: 0.728 for the first, 0.776 for the second.

Compared with ARVANYQRDGP [CAT_Y386], GVLKEYGVKVL [CPS1_Y529] is lower in phosphorylation enrichment: 0.496 for the first, 0.334 for the second.

First: EADRKYEEVAG [TPM3_Y163_R168G]
Second: GDAMLYYPSVS [GPR143_Y177_A173D]
The phosphorylation enrichment of the first is lower: 0.613 for the first, 1.36 for the second.

First: RQNRFYDAKVR [FKBP6_Y188]
Second: NRKGKYFNVER [ANAPC4_Y469]
The phosphorylation enrichment of the first is higher: 0.658 for the first, 0.631 for the second.

First: VFAPDFIAGVS [NOB1_Y366_Y366F]
Second: GIVEDYRPTFF [ACVRL1_Y421_P424T_YF]
The phosphorylation enrichment of the first is lower: 0.709 for the first, 0.811 for the second.

Compared with QRIFQYIRSRF [DYRK1B_Y273_Q275R_YF], ILGRFYETGSI [PAX2_Y73_YF] is lower in phosphorylation enrichment: 0.988 for the first, 0.52 for the second.

First: GFIISYREEEQ
Second: IRTIDYRFTVW [IDS_Y497_YF]
The phosphorylation enrichment of the first is lower: 0.598 for the first, 0.735 for the second.

Compared with KEAQVYQAFKL [SUCLG2_Y343], KDQGIYEDFVE [MYL6_Y86_T85I_YF] is lower in phosphorylation enrichment: 15.3 for the first, 0.932 for the second.

First: FSMGCYEISLE [HMGCL_Y198_G203E_YF]
Second: SRGSSYNSIPK [FLNC_Y2625_S2626N]
The phosphorylation enrichment of the first is higher: 1.2 for the first, 0.524 for the second.

Going from ATHSRYRLNDY [CLDN14_Y233_G232R] to SIKDKYVTVLF [KCNH2_Y611_A614V_YF], the phosphorylation enrichment rises from 0.476 to 0.549.

First: ENGPFYASFPP [GDAP2_Y488_T489A_YF]
Second: ECKLFYSRKEG [PTPN11_Y263_L262F]
The phosphorylation enrichment of the first is higher: 14.9 for the first, 0.768 for the second.

Going from STSKTYVISQT [RBBP6_Y87_R91Q] to MVSLFYGTAIF [OR10C1_Y251_L255I], the phosphorylation enrichment rises from 0.615 to 1.22.

Going from RLLVVYPSTQR [HBB_Y36_W38S] to LGRTVYADCLA [ABCA4_Y2063_L2060R], the phosphorylation enrichment rises from 0.899 to 1.39.

In the case of VTRKEYFIFLE [CAMKV_Y95], the phosphorylation enrichment is reported as 0.792.
